The experiment concerns the target T1, Irga6 (GST tag cleaved off) (mouse, UniProt Q9QZ85 1-411).
T1 construct: Irga6, mouse IRG protein, cleaved from the GST fusion as a near-native protein; Lacks the N-terminal myristoylation; In one NMR experiment [13C]-Met labelled; also called wt Irga6; purified Irga6; source: E. coli BL21 (pGEX-4T-2), purified (Glutathione Sepharose, thrombin cleavage, Superdex 75); not shown: GST, N-terminal, cleaved
T1 sequence: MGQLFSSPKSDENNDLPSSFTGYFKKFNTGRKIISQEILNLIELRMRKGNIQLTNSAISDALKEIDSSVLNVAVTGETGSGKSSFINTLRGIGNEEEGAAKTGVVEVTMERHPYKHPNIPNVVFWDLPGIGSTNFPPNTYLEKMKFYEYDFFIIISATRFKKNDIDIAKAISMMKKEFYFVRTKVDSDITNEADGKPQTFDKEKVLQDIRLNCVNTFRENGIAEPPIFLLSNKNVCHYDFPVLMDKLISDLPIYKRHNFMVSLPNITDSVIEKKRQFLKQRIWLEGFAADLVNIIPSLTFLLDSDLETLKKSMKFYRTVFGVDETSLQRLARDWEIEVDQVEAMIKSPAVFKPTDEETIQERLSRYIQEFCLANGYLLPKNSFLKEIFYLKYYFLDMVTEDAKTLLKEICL
The experiment can be described thus: NMR titration; 13C-1H HSQC of [13C]-Met labelled ROP5BI without or with unlabeled Irga6; 30°C, 800 MHz. The following applies: both partners purified.

B1: ROP5BI pseudokinase domain (domain or fragment, Toxoplasma gondii (type I))
chain: EAGDSFMRDLLKREEELIGYCREEALKEPAAMVEAVTATVWPQNAETTVDSLLSQGERKLKLVEPLRVGDRSVVFLVRDVERLEDFALKVFTMGAENSRSELERLHEATFAAARLLGESPEEARDRRRLLLPSDAVAVQSQPPFAQLSPGQDDYAVANYLLLMPAASVDLELLFSTLDFVYVFRGDEGILALHILTAQLIRLAANLQSKGLVHGHFTPDNLFIMPDGRLMLGDVSALWKVGTRGPASSVPVTYAPREFLNASTATFTHALNAWQLGLSIYRVWCLFLPFGLVTPGIKGSWKRPSLRVPGTDSLAFGSCTPLPDFVKTLIGRFLNFDRRRRLLPLEAMETPEFLQLQNEISSSLSTGQ
notes: pseudokinase domain of ROP5 isoform B of a type I T. gondii strain (ROP5BI); In one NMR experiment [13C]-labelled on the Cε of methionines; also called purified pseudokinase domain protein ROP5BI; source: purified
Regarding B1, the binding result was “binds”.
